Consider 1 substance from PMC3032424.

The assay has as its target mouse hemoglobin (mouse) (UniProt P01942). The assay is described as follows: BLI. For orientation: Biolayer interferometry detects binding as a change in optical thickness at a sensor tip.

As usually defined, the Kd is the concentration at which binding is half-saturated.

The substance “recombinant IsdB (from UniProt A6QG30 41-613) (receptor)” displayed a Kd of 980 nM.
